Assay: soluble on expression in E. coli; label from the status in PepcDB or PDB records

| Sequence | soluble on expression in E. coli |
| --- | --- |
| MTKALFFDIDGTLVSFETHRIPSSTIEALEAAHAKGLKIFIATGRPKAIINNLSELQDRNLIDGYITMNGAYCFVGEEVIYKSAIPQEEVKAMAAFCEKKGVPCIFVEEHNISVCQPNEMVKKIFYDFLHVNVIPTVSFEEASNKEVIQMTPFITEEEEKEVLPSIPTCEIGRWYPAFADVTAKGDTKQKGIDEIIRHFGIKLEETMSFGDGGNDISMLRHAAIGVAMGQAKEDVKAAADYVTAPIDEDGISKAMKHFGII | soluble |
| MTKHPPNRRGISFEVGAQLEARDRLKNWYPAHIEDIDYEEGKVLIHFKRWNHRYDEWFCWDSPYLRPLEKIQLRKEGLHEEDGSSEFQINEQVLACWSDCRFYPAKVTAVNKDGTYTVKFYDGVVQTVKHIHVKAFSKDQNIVGNARPKETDHKSLSSSPDKREKFKEQRKATVNVKKDKEDKPLKTEKRPKQPDKEGKLICSEKGKVSEKSLPKNEKEDKENISENDREYSGDAQKKTSQTPFHSSYCCGFKLSNFATQLEHHHHHH | soluble |
| MTKIFIRDDNGGTEMSQDPFQEREAEKYANPIPSREFILEHLTKREKPASRDELAVELHIEGEEQLEGLRRRLRAMERDGQLVFTRRQCYALPERLDLVKGTVIGHRDGYGFLRVEGRKDDLYLSSEQMKTCIHGDQVLAQPLGADRKGRREARIVRVLVPKTSQIVGRYFTEAGVGFVVPDDSRLSFDILIPPDQIMGARMGFVVVVELTQRPTRRTKAVGKIVEVLGDNMGTGMAVDIALRTHEIPYIWPQAVEQQVAGLKEEVPEEAKAGRVDLRDLPLVTIDGEDARDFDDAVYCEKKRGGGWRLWVAIADVSYYVRPPTPLDREARNRGTSVYFPSQVIPMLPEVLSNGLCSLNPQVDRLCMVCEMTVSSKGRLTGYKFYEAVMSSHARLTYTKVWHILQGDQDLREQYAPLVKHLEELHNLYKVLDKAREERGGISFESEEAKFIFNAERRIERIEQTQRNDAHKLIEECMILANISAARFVEKAKEPALFRIHDKPSTEAITSFRSVLAELGLELPGGNKPEPRDYAELLESVADRPDAEMLQTMLLRSMKQAIYDPENRGHFGLALQSYAHFTSPIRRYPDLMLHRAIKYLLAKEQGHQGNTTETGGYHYSMEEMLQLGQHCSMAERRADEATRDVSDWLKCDFMLDQVGNVFKGVISSVTGFGFFVRLDDLFIDGLVHVSSLDNDYYRFDQVGQRLMGESSGQTYRLGDRVEVRVEAVNMDERKIDFSLISSERAPRNVGKTAREKAKKGDAGKKGGKRRQVGKKVNFEPDSAFRGEKKTKPKAAKKDARKAKKPSAKTQKIAAATKAKRAAKKKVAE | not soluble |
| MTKKLHIKTWGCQMNEYDSSKMADLLGSTHGYELTEIAEEADVLLLNTCSIREKAQEKVFHQLGRWKALKDLNPNLIIGVGGCVASQEGAHIRERAHYVDVIFGPQTLHRLPEMINHVQGTRSPIVDISFPEIEKFDRLPEPRADGPTAFVSIMEGCNKYCTFCVVPYTRGEEVSRPCDDVLFEIAQLAAQGVREVNLLGQNVNAYRGETYDGEICSFAELLRLVAAIDGIDRVRFTTSHPIEFTDDIISVYEDTPELVSFLHLPVQSGSDRVLTMMKRRHTALEYKAIIRKLHNARPGILISSDFIIGFPGETQADFEQTMKLIADVNFDMSYSFVYSARPGTPAADMVDDVLEEEKKQRLYLLQDRITKQAMRFSRLMLGTVQRILVEGTSRKSVMELSGRTENNRVVNFEGTPDMIGKFVDVEIVDVYTNSLRGIVVRTEDQMDLRVHESPSSVIARTRKENEIGVGFYQPLEHHHHHH | soluble |
| MTKLGLGLSGDLGAQEIVRMLDLQPHPEGGWYRQTFQDAPGPDGRAASTCIYYLLEAEQMSAWHRVDAVETWHYYAGAPISLTLSPPDGKGASAYVLGPDLRAGCRPQVIVPTLWWQTAVSLGAWTLVGCTVAPGFRFEGFEMAPPDWTPSTGLEHHHHHH | soluble |
| MTKSQKQTKQYLRIFDQQMSLYEHYARKNSLQSKSLFILLWLYYNPQGITQKQIVEKTYSTKQVVNATLKRWNEKNYIVFLKSQTDRREKKIILSSQGQEYAASIIAPLEKMEEAAFNSLSIQEQQTMIQLTGHYYQALLSQMQLYFVQGEGEKATKEKL | not soluble |
| MTKSQQKVSSIEKLSNQEGIISALAFDQRGALKRMMAEHQSETPTVEQIEQLKVLVSEELTQYASSILLDPEYGLPASDARNNDCGLLLAYEKTGYDVNAKGRLPDCLVEWSAKRLKEQGANAVKFLLYYDVDDTEEINIQKKAYIERIGSECVAEDIPFFLEVLTYDDNIPDNKSAEFAKVKPRKVNEAMKLFSEDCFNVDVLKVEVPVNMNFVEGFSEGEVVYTKEEAAQHFRDQDAATHLPYIYLSAGVSAELFQDTLKFAHDSGAQFNGVLCGRATWSGAVKVYIEEGEQAAREWLRTVGFKNIDDLNTVLKTTATSWKNK | soluble |
| MTKVLFITANPNSAEGSFGMAVGEAFIEAYKNEHPQDEVVTIDLFNTTVPAIDADVFAAWGKFAAGEGFEALTEVQQQKVAAMNTNLETFMNADRYVFVTPMWNFSYPPVVKAYLDNVAIAGKTFKYTENGPVGLLEGKKALHIQATGGVYSEGAYAAVDFGRNHLKTVLGFVGVNDTEYIAVEGMNANPEKAQEIKEAAIANARELAKRF | not soluble |
| MTKVQDITRESWILNTFPEWGTWLNEEIEQEVVPADNFAMWWLGNCGIWIKTPGGANVVMDLWSNRGKATKQVKDMVRGHQMANMAGARKLQPNLRAQPMVIDPFMINELDYYLVSHYHSDHIDINTAAAIINNPKLNHVKFVGPYECGEVWKNWGVPKDRIMILKPGDSFEFKDIKITAVESFDRTCLVTLPIQGADAQDGDLAGLAITDDDMARKAVNYIFETPGGTIYHGADSHFSNYFAKHGRDYDIDVVLNNYGENPIGIQDKMTSVDLLRMAENLRAKVVIPVHYDIWSNFMASTDEILELWKMRKERLQYDFHPFIWEVGGKYTYPQDQNRIEYHHPRGFDDCFLEDSNIQFKALL | not soluble |
| MTKVSVVGAAGTVGAAAGYNIALRDIADEVVFVDIPDKEDDTVGQAADTNHGIAYDSNTRVRQGGYEDTAGSDVVVITAGIPRQPGQTRIDLAGDNAPIMEDIQSSLDEHNDDYISLTTSNPVDLLNRHLYEAGDRSREQVIGFGGRLDSARFRYVLSEEFDAPVQNVEGTILGEHGDAQVPVFSKVSVDGTDPEFSGDEKEQLLGDLQESAMDVIERKGATEWGPARGVAHMVEAILHDTGEVLPASVKLEGEFGHEDTAFGVPVSLGSNGVEEIVEWDLDDYEQDLMADAAEKLSDQYDKIS | soluble |
| MTLDDDDYIKQMELQRKAFESQFGSLESMGFEDKTKNIRTEVDTRDSSGDEIDNSDHGSDFKDGTIESSNSSDEDSGNETAEENNQDSKPKTQPKVIRFNGPSDVYVPPSKKTQKLLRSGKTLTQINKKLESTEAKEEKEDETLEAENLQNDLELQQFLRESHLLSAFNNGGSGSTNSGVSLTLQSMGGGNDDGIVYQDDQVIGKARSRTLEMRLNRLSRVNGHQDKINKLEKVPMHIRRGMIDKHVKRIKKYEQEAAEGGIVLSKVKKGQFRKIESTYKKDIERRIGGSIKARDKEKATKRERGLKISSVGRSTRNGLIVSKRDIARISGGERSGKFNGKKKSRR | not soluble |
| MTLPVRKSLHDAVLQASKADTWEQATKEWNEVSFIFNGIGRSNCVCGNAIKYAYELFNGVTGQRLFPIGSDCVRHFHRLSLDQQLEEEEKLLRKVENLTRKAQKKEKIKVNKSNFDERLLKWLWEKGVFKPNRGNQFAPERDYQLFLEVFQGGSWTKAEPKKKARMEEVLEKCIKPFLLGKSDDQLYLVKLGKEKIDYEQELRIQAEKERKKRDKIAKQYADNLVLAMGPAERAYQDYFGFTETLTQEERKWEKILFGKNRAERAIKAKQYQKELEKDQRIASQDPIERKQKQTWILNSYFRELPEEKARFSRLLLEYRKSGEVPFSTEYLSDHLIDFFYKMKAFEFEIAPEQVRDFLKKSLQEDHRSSAQGSWIEGILLNCLKPFLERLVI | not soluble |
| MTLRKILALTCLLLPMMASAHQFETGQRVPPIGITDRGELVLDKDQFSYKTWNSAQLVGKVRVLQHIAGRTSAKEKNATLIEAIKSAKLPHDRYQTTTIVNTDDAIPGSGMFVRSSLESNKKLYPWSQFIVDSNGVALGAWQLDEESSAVVVLDKDGRVQWAKDGALTPEEVQQVMDLLQKLLK | not soluble |
| MTLSRFAYNGQRCPSSHNILDNSKIISEDCRKELTELFHHYYPIEIDPHRTIKEKLPHMVQWWSKAHSLLCQQRIQKVQIAQVVGESTAMLREGYKTFFDTLYQNNIPLFIFSAGIGDILEEIIRQMKVFHPNIHIVSNYMDFSEDGFLKGFKGQLIHTYNKNSSVCENSSYFQQLQNKTNIILLGDSIGDLTMADGVPGVQNILKIGFLNDKVEERRERYMDSYDIVLEKDETLDVVNGLLRHILYQGDCVELQGS | soluble |
| MTLTELRYIVAVAQERHFGRAARRCFVSQPTLSIAIKKLEEELAVSLFDRSSNDIITTEAGERIVAQARKVLEEAELIRHLANEEQNELEGAFKLGLIFTVAPYLLPKLIVSLRRTAPKMPLMLEENYTHTLTESLKRGDVDAIIVAEPFQEPGIVTEPLYDEPFFVIVPKGHSFEELDAVSPRMLGEEQVLLLTEGNCMRDQVLSSCSELAAKQRIQGLTNTLQGSSINTIRHMVASGLAISVLPATALTENDHMLFSIIPFEGTPPSRRVVLAYRRNFVRPKALSAMKAAIMQSQLHGVSFICD | soluble |
| MTMEKGMSSGEGLPSRSSQVSAGKITAKELETKQSYKEKRGGFVLVHAGAGYHSESKAKEYKHVCKRACQKAIEKLQAGALATDAVTAALVELEDSPFTNAGMGSNLNLLGEIECDASIMDGKSLNFGAVGALSGIKNPVSVANRLLCEGQKGKLSAGRIPPCFLVGEGAYRWAVDHGIPSCPPNIMTTRFSLAAFKRNKRKLELAERVDTDFMQLKKRRQSSEKENDSGTLDAVGAVVVDHEGNVAAAVSSGGLALKHPGRVGQAALYGCGCWAENTGAHNPYSTAVSTSGCGEHLVRTILARECSHALQAEDAHQALLETMQNKFISSPFLASEDGVLGGVIVLRSCRCSAEPDSSQNKQTLLVEFLWSHTTESMCVGYMSAQDGKAKTHISRLPPGAVAGQSVAIEGGVCRLESPVN | soluble |
| MTMSELGSLFEAGYHDILQLLAGQGKSPSGPPFARYFGMSAGTFEVEFGFPVEGGVEGSGRVVTGLTPSGKAASSLYIGPYGEIEAVYDALMKWVDDNGFDLSGEAYEIYLDNPAETAPDQLRTRVSLEHHHHHH | not soluble |
| MTMTPVSDPIPIGNQEDKENIEDAENTMNISPACDRILVDHQYTRDVVITGKCSSLTYKKA | not soluble |
| MTNDVEMKSETEELPPFPTVHILQVVKDAQQQHGLRHGDYARYRKYCAAKLERMRKALKFTNSHNCQKKRKAKFVKKWLSVESVQNVQFLNFGIFESERRYAEAMIDKITLEDNPEKSRKKFSMINSLRKAVLHATNLEKIVQESERFDAPTKLEAQAYAAWMRGMCSFESRNWQKASESLKLAKTVYEKLAEATNNTTLSSIFKGRCREIQPQLRLCEFNIAESPGAVGTMTELMELRMQMGEGGDSSVDKLISEMRASATSAEVVTIEWGGAKSTVDDEKAKQVVQEWKQTEVELAQCQTPKEKMALFEKATADTRDAIDRISDIIRRKSSENADTTVLQSIKAYLEFLKMNGTASRYLAIIDNTKSEKKSKPQDLLRLYDSVIEIYKEVAEIPGADHDKNLIQAFEVKVEYYRAFRCFYMASSYSALHKYSEAAALFDRTVSRVQDAEGKLKKLKSSSFITNETQSSLNELRSEVESAKVTVRAARLASAAGDVKTDSELAKIIDKRPLLETVNEWRQWDVRNSLKDKKTIPVASLPPAFIPMPNKPIFFDLANFHLTMPNVDDRLEKLQKDRDATPKKAAKGSSAAAASSKTSNQEEEEQQGLTGMLSGWKKSFWGNK | not soluble |

— the DeepSol protein solubility set
